Data on 2 molecules can be found in paper PMC4109836, “Analysis of the co-operative interaction between the allosterically regulated proteins GK and GKRP using tryptophan fluorescence” (Biochemical Journal, 2014).

The target of one assay is T1, GK-W99R/W167F/W257F (Homo sapiens, UniProt P35557, W167F/W257F/W99R).
T1 construct: GST (cleaved yes); made in house; host or cells: Escherichia coli
T1 sequence (P35557 1-465 W99R/W167F/W257F): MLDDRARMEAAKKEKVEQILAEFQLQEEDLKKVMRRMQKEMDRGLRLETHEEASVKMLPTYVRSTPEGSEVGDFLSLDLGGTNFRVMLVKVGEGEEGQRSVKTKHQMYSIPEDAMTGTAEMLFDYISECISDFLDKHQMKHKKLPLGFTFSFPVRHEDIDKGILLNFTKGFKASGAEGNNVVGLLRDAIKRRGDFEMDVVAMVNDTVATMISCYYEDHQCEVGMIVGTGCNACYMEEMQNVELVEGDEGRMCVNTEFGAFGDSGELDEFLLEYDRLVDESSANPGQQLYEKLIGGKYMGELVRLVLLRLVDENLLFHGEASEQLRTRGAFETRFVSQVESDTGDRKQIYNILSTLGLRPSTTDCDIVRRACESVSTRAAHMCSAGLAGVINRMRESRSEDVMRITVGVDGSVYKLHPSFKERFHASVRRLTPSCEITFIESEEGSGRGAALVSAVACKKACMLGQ
Also noted: method as in ref 4 (a number printed in a supplementary file, which may have a reference list of its own: not looked up in the article's list). The note with it: cited from earlier work.

In a further assay the target is T2, GKRP-WT (Homo sapiens, UniProt P35557+Q14397, W167F/W257F/W99R).
T2 construct: FLAG; GST (cleaved yes); made in house; host or cells: Escherichia coli
T2 sequence (Q14397 1-625): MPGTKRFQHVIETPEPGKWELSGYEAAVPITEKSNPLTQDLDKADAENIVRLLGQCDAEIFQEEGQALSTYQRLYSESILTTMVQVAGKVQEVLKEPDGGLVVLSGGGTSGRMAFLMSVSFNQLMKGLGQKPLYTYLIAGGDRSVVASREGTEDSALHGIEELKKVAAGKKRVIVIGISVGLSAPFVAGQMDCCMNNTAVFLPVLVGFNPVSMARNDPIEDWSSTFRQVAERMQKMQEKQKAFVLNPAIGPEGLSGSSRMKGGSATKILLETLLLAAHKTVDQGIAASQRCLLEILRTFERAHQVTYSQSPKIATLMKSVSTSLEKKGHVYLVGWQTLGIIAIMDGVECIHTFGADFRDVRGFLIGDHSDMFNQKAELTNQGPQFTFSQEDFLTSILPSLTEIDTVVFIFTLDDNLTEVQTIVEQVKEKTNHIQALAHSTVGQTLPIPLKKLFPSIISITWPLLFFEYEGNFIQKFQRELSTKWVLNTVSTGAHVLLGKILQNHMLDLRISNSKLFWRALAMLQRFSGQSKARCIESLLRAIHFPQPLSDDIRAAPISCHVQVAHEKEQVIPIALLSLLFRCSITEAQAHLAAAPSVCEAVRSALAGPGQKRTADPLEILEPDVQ
T2 sequence (P35557 1-465 W99R/W167F/W257F): T1 sequence (P35557 1-465 W99R/W167F/W257F)
Nature of the assay: Titration of GKRP-WT with GK-W99R/W167F/W257F (GK–GKRP complex assembly) by TF.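 On all read-outs here: tryptophan fluorescence of GKRP titrated with GK, excitation 295 nm, emission read at 340 nm, phosphate buffer pH 7.2, Hill equation fitting.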 Type of assay: binding. The note with it: for Kd: read-out: S0.5 of GK.

Setting [1] is: GK titration with 20 μM GKA, 20°C.
[2] abbreviates: GK titration with 500 μM F1P, 20°C.
[3] abbreviates: GK titration with 500 μM F6P, sigmoidal fit, 20°C.
[4] abbreviates: GK titration with 500 μM F6P, simple saturation fit (H = 1).
[5] abbreviates: GK titration with 100 mM D-glucose and 20 μM GKA, 20°C.
[6] abbreviates: GK titration with 100 mM D-glucose and 500 μM F1P, 20°C.
Setting [7] is: GK titration with 100 mM D-glucose and 500 μM F6P, 20°C.
Where [8] appears, read: GK titration with 100 mM D-glucose, 20°C.
The mark [9] stands for this setting: GK titration, no further agent, sigmoidal fit, 20°C.
[10] abbreviates: GK titration, no further agent, simple saturation fit (H = 1).

Read-outs that look alike come from different tables or passages of the source.

Consider `OC[C@H]1OC(O)[C@H](O)[C@@H](O)[C@@H]1O` (stereo partly drawn) [D-Glucose, D-glucose], for which, at GK-W99R/W167F/W257F, the “H (glucose)” value is recorded as 1.45 and the “glucose S0.5” value is given as 4.8 mM.

B1: GK-W99R/W167F/W257F: tryptophan residue-free, non-fluorescent recombinant human β-cell GK made for the present study (protein)
chain: T1 sequence (P35557 1-465 W99R/W167F/W257F)
modifications: left off: GST, end not stated, cleaved
notes: tryptophan residue-free, non-fluorescent recombinant human β-cell GK made for the present study
For B1, the H with GKRP-WT (setting [1]) is listed as 3.4; in the assay with GKRP-WT (setting [2]) it was 2.8; with GKRP-WT (setting [3]), 1.71; in the assay with GKRP-WT (GK titration with 500 μM F6P, simple saturation fit), 1; with GKRP-WT (setting [5]), 3.2; with GKRP-WT (setting [6]) it was 2.25. For the same molecule, the H with GKRP-WT (setting [7]) came out at 2.83; in the assay with GKRP-WT (setting [8]), 2.78; with GKRP-WT (setting [9]) it was 1.74; with GKRP-WT (GK titration, no further agent, simple saturation fit) it was 1. Further, the ΔF in the assay with GKRP-WT (setting [1]) turned out to be 0.42; in the assay with GKRP-WT (setting [2]), 0.32; with GKRP-WT (setting [3]), 0.31; in the assay with GKRP-WT (setting [4]) it was 0.43; in the assay with GKRP-WT (setting [5]) it was 0.42; with GKRP-WT (setting [7]), 0.35. The ΔF in the assay with GKRP-WT (setting [8]) was found to be 0.42; with GKRP-WT (setting [9]) it was 0.29; in the assay with GKRP-WT (setting [10]), 0.39. For the same molecule, the Kd with GKRP-WT (setting [1]) was found to be 2770 nM; with GKRP-WT (setting [2]), 2680 nM; with GKRP-WT (setting [3]), 1200 nM; in the assay with GKRP-WT (setting [4]), 1840 nM; with GKRP-WT (setting [5]) it was 4750 nM; with GKRP-WT (setting [6]), 3300 nM. The Kd in the assay with GKRP-WT (setting [7]) is 2430 nM; with GKRP-WT (setting [8]), 2560 nM; in the assay with GKRP-WT (GK titration, no further agent, sigmoidal fit, 20°C, listed as GK), approximately 1200 nM; with GKRP-WT (setting [9]), 1220 nM; in the assay with GKRP-WT (setting [10]), 1850 nM. Besides, the “maximal ΔTF value of GKRP-WT” value with GKRP-WT (range depending on the assay conditions) is 0.29–0.42. Further, the “increase of the TF of GKRP-WT” value in the assay with GKRP-WT (saturating GK (5 μM), 0.3 μM GKRP) is 29%. Further, in the assay with GKRP-WT (with and without F6P), the “S0.5 value of GK with GKRP-WT lower than with GKRP-P446L (on average)” value worked out at 35%.
